Here are results for 90 variants from IntAct's records for PubMed 29039417.

B1: BBSome complex member BBS2 (Homo sapiens), Q9BXC9 (parent)
chain: MLLPVFTLKLRHKISPRMVAIGRYDGTHPCLAAATQTGKVFIHNPHTRNQHVSASRVFQSPLESDVSLLSINQAVSCLTAGVLNPELGYDALLVGTQTNLLAYDVYNNSDLFYREVADGANAIVLGTLGDISSPLAIIGGNCALQGFNHEGSDLFWTVTGDNVNSLALCDFDGDGKKELLVGSEDFDIRVFKEDEIVAEMTETEIVTSLCPMYGSRFGYALSNGTVGVYDKTSRYWRIKSKNHAMSIHAFDLNSDGVNELITGWSNGKVDARSDRTGEVIFKDNFSSAIAGVVEGDYRMDGHIQLICCSVDGEIRGYLPGTAEMRGNLMDTSAEQDLIRELSQKKQNLLLELRNYEENAKAELASPLNEADGHRGIIPANTRLHTTLSVSLGNETQTAHTELRISTSNDTIIRAVLIFAEGIFTGESHVVHPSIHNLSSSICIPIVPPKDVPVDLHLKAFVGYRSSTQFHVFESTRQLPRFSMYALTSLDPASEPISYVNFTIAERAQRVVVWLGQNFLLPEDTHIQNAPFQVCFTSLRNGGHLHIKIKLSGEITINTDDIDLAGDIIQSMASFFAIEDLQVEADFPVYFEELRKVLVKVDEYHSVHQKLSADMADHSNLIRSLLVGAEDARLMRDMKTMKSRYMELYDLNRDLLNGYKIRCNNHTELLGNLKAVNQAIQRAGRLRVGKPKNQVITACRDAIRSNNINTLFKIMRVGTASS
partner: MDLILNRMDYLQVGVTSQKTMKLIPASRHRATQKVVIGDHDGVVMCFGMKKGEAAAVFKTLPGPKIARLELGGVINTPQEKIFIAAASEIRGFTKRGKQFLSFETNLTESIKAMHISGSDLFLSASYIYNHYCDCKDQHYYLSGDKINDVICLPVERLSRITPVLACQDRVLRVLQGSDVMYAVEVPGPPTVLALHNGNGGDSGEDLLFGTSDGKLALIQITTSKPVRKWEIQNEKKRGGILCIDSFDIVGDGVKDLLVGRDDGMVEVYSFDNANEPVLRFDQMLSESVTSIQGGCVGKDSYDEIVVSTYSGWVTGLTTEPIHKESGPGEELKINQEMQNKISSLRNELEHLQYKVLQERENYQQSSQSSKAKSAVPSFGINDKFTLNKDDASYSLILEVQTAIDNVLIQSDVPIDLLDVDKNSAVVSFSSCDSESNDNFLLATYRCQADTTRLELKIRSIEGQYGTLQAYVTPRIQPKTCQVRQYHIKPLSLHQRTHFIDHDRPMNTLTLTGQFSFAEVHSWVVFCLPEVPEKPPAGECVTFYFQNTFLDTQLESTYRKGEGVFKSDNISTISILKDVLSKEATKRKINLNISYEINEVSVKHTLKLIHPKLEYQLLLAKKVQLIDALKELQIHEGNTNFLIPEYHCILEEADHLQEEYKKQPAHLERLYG

The variants in the assay derive from B1. The note with it: with BBS7, Q8IWZ6-2.
In the case of I417A, the “effect of a mutation on the interaction” value is given as “with no effect”.
Take I417E: the “effect of a mutation on the interaction” value is recorded as “with no effect”.
In the case of I411E it was “with no effect”.
With I411A, the “effect of a mutation on the interaction” value is recorded as “with no effect”.
In the case of I411K it was “with no effect”.
For T395E the value was “with no effect”; for T395K, “with no effect”; for T395A, “with no effect”.
Regarding G421E, the “effect of a mutation on the interaction” value is “with no effect”.
For the variant G421A, the “effect of a mutation on the interaction” value was “with no effect”.
In the case of G421K it was “with no effect”.
With L402K, the “effect of a mutation on the interaction” value is recorded as “disrupting interaction strength”.
For L402A the value was “disrupting interaction strength”; for L402C, “disrupting interaction strength”.
In the case of L402E it was “with no effect”; in that of H384E, “with no effect”.
As to H384A, the “effect of a mutation on the interaction” value is “with no effect”.
Consider H384K, for which the “effect of a mutation on the interaction” value is “with no effect”.
In the case of H384P it was “disrupting interaction strength”; in that of S388E, “with no effect”; in that of S388A, “with no effect”.
For S388K the value was “with no effect”; for V389E, “with no effect”; for V389K, “disrupting interaction strength”.
Take V389A: the “effect of a mutation on the interaction” value is on record as “with no effect”.
For L383A the value was “disrupting interaction strength”.
Take L383K: the “effect of a mutation on the interaction” value is recorded as “with no effect”.
For L383E the value was “disrupting interaction strength”; for E401A, “with no effect”; for E401K, “with no effect”.
In the case of R374K it was “with no effect”; in that of R374E, “with no effect”.
In the case of R374A, the “effect of a mutation on the interaction” value is listed as “with no effect”.
For T381A, the “effect of a mutation on the interaction” value is recorded as “with no effect”.
On to T381K, for which the “effect of a mutation on the interaction” value was “with no effect”.
For the variant T381E, the “effect of a mutation on the interaction” value is reported as “with no effect”.
For N408A the value was “with no effect”.
Regarding N408S, the “effect of a mutation on the interaction” value is “disrupting interaction strength”.
For N408E the value was “with no effect”; for N408K, “with no effect”.
In the case of P378K it was “with no effect”; in that of P378A, “with no effect”.
In the case of P378E it was “with no effect”; in that of L367A, “with no effect”.
Take L367K: the “effect of a mutation on the interaction” value was “with no effect”.
For L367E the value was “with no effect”; for N380A, “with no effect”.
As to N380E, the “effect of a mutation on the interaction” value is listed as “disrupting interaction strength”.
For N380K the value was “with no effect”; for E420A, “with no effect”.
For E420K the value was “with no effect”; for N393E, “with no effect”.
Consider N393K, for which the “effect of a mutation on the interaction” value is on record as “with no effect”.
Regarding N393A, the “effect of a mutation on the interaction” value was “with no effect”.
For S365K the value was “with no effect”; for S365A, “with no effect”.
In the case of S365E it was “with no effect”.
In the case of T410K it was “with no effect”; in that of T410E, “with no effect”; in that of T410A, “with no effect”.
Consider T400K, for which the “effect of a mutation on the interaction” value is reported as “with no effect”.
For T400A the value was “with no effect”; for T400E, “with no effect”.
For R382E the value was “with no effect”.
In the case of R382A it was “with no effect”.
As for R382K, the “effect of a mutation on the interaction” value is “with no effect”.
In the case of A379E it was “with no effect”; in that of A379K, “with no effect”; in that of L416K, “with no effect”.
In the case of L416A it was “with no effect”.
In the case of L416E it was “with no effect”; in that of H399E, “with no effect”.
For H399A, the “effect of a mutation on the interaction” value was “with no effect”.
For H399K the value was “with no effect”.
For I412E the value was “with no effect”; for I412K, “with no effect”.
In the case of I412A it was “with no effect”; in that of I412R, “disrupting interaction strength”.
G372K: the “effect of a mutation on the interaction” value is listed as “with no effect”.
For G372E the value was “with no effect”; for G372A, “with no effect”; for L391E, “with no effect”.
In the case of L391K it was “with no effect”; in that of L391A, “with no effect”.
In the case of V415A it was “with no effect”; in that of V415E, “with no effect”; in that of V415K, “with no effect”.
On to P366A, for which the “effect of a mutation on the interaction” value is “with no effect”.
For P366E the value was “with no effect”.
With P366K, the “effect of a mutation on the interaction” value is given as “with no effect”.
